{
  "source": "patent US8821943B2",
  "about": "“Methods and compositions for targeted delivery of therapeutic agents” (Board of Regents of the University of Nebraska, priority 2006, dated 2014)",
  "key": {"[1]": {"tested_on": "ARPE-19 cells", "test": "Nanoparticle uptake by human retinal pigment epithelial cells", "format": "cell-based", "conditions": "1 ml of 100 μg/ml suspension in serum free medium", "procedure": "A study was performed to examine the effect of targeting moieties on biodegradable and non-biodegradable carrier particles and their uptake in ocular cells. The biodegradable and non-biodegradable targeted carrier particles of the preceding Example were used. Uptake of nanoparticles by human retinal pigment epithelial cells (ARPE-19 cell line) was quantified by measuring fluorescence in cell lysate obtained after incubation of targeted or untargeted (unconjugated) nanoparticles with ARPE-19 cell monolayers.\nARPE-19 cells were obtained from American Type Culture Collection (ATCC, Manassas, Va.). The cells were maintained in culture according to supplier's recommendation. All studies were conducted using confluent cells of passages 20-30. Dulbecco's modified Eagle's medium (DMEM-F/12), fetal bovine serum, penicillin-streptomycin and L-glutamine were obtained from Gibco-BRL (Invitrogen Inc., Carlsbad, Calif.). Cell culture flasks (T-75 cm^2) and plates were purchased from Corning Inc., (Corning, N.Y.). To investigate the uptake of particles, ARPE-19 cells between 20-30 passages were cultured in 24-well plates until confluency. […] Fluorescence intensity of the cell lysates was determined at an excitation and emission wavelength of 505 and 515 nm, respectively, for FluoSpheres®. […]"}, "[2]": {"tested_on": "excised bovine nasal tissue (MTA, MTP, ITP regions)", "test": "Nanoparticle transport and uptake across excised bovine nasal tissue (Ussing chambers)", "format": "in vitro ADME", "conditions": "for Remaining in Donor / Total / Washes: mass balance; for Tissue Uptake / Transport: mass balance after 4 hr transport; for decrease in transport on co-treatment with free ligand / decrease in uptake on co-treatment with free ligand: m:s", "procedure": "Transport studies were conducted in bovine nasal tissue. Bovine nasal tissue was obtained from freshly slaughtered cattle, and different regions (MTA, MTP, ITP) were prepared as described in Example 13. Nanoparticles coupled to deslorelin or transferring via aldehyde sulfate moieties were prepared as described in Example 3. The nanoparticle size was measured using a Zeta Plus Analyzer (Brookhaven Instruments Limited, UK). Particle size was analyzed before and after ligand conjugation in deionized filtered water.\nThe tissues were exposed to 5 ml of assay buffer with either peptide conjugated or plain nanoparticles on the donor side (mucosal or serosal surface). Assay buffer (5 ml) without particles was exposed to the receiver side (serosal or mucosal surface). The buffers used were pre-equilibrated to 37° C. or 4° C. The donor nanoparticle concentration was 20 or 100 μg/ml. […] Donor samples were collected at the beginning (replenished with particle stock suspension) and at the end of the experiment. The samples were collected in polypropylene tubes, capped, and stored at 4° C. until analysis. The aperture/tissue area exposed to the bathing fluids in this set up was 1.78 cm^2.\nNanoparticle Uptake: At the end of 4 hr in the above transport studies, the tissues exposed (1.78 cm^2) to the nanoparticle suspension were cut and washed thrice using 1 ml of assay buffer at pH 5. After the washes, the tissues were weighed and placed in 1 ml of 2% Triton-X 100™ and homogenized until a tissue suspension was formed using the Tissue Tearor™. The tissue debris was separated by centrifugation at 3000 rpm (Marathon Micro A, Fisher Scientific, Pittsburgh, Pa.) for 10 min. The supernatant was collected to analyze the amount of nanoparticles taken up by the tissue. Standard curves were prepared by homogenizing serial dilution of the stock solution with approximately 100-150 mg of nasal tissue. The homogenates were then centrifuged and the supernatant was analyzed.\nNanoparticle Transport and Uptake: Competition with Free Ligand: Similar to the transport and uptake studies mentioned above, the competition study was carried out using the modified Ussing chambers. The tissues were exposed to 20 μg/ml of nanoparticles conjugated with deslorelin or transferrin in the presence of 10 times (200 μg/ml) of plain deslorelin or transferrin in the donor chamber. Receiver samples were obtained at various intervals up to 4 hr and replaced with pre-warmed assay buffer. At the end of 4 hr the tissue region exposed to the nanoparticle preparation was cut and washed in assay buffer at pH 5. The tissues were then homogenized and centrifuged. The supernatants were analyzed to determine nanoparticle uptake.\nNanoparticle Quantification: The samples obtained from the transport studies, washes and supernatants of tissue homogenates were analyzed for nanoparticle content using a spectrofluorometer (Cary Eclipse, Varian Inc.). The excitation wavelength of 505 nm and an emission wavelength of 515 nm were used. Bandwidths of 3 or 5 nm were used for the sample analysis after dilution as required. The procedure used for extraction of the nanoparticles was performed as mentioned in the methods section under nanoparticle uptake. […] Briefly, similar amounts of tissues (weighed to match weight of tissues obtained from the transport experiment) were spiked with serially diluted stock nanoparticle suspensions (0.3 μg/ml-100 μg/ml) prepared in 2% Triton-X 100™. The tissues were homogenized, centrifuged and the supernatant obtained was used for standards. Standard curves were also prepared in assay buffer and acid wash buffer."}, "[3]": {"conditions": "20 μg/ml nanoparticles + 200 μg/ml free ligand, ITP"}, "[4]": {"conditions": "20 μg/ml nanoparticles + 200 μg/ml free ligand, MTP"}},
  "data": [
    {"substance": "Transferrin-AS: transferrin-aldehyde sulphate-conjugated polystyrene nanoparticles", "values": [
      {"measurement": "percentage uptake at 3 h by ARPE-19 cells", "setting": "[1]", "result": "12.2±0.26", "unit": "%"},
      {"measurement": "transport in the s:m direction greater than in the m:s direction", "setting": "[2]; ITP", "result": 10, "unit": "%"},
      {"measurement": "Remaining in Donor", "setting": "[2]; ITP", "result": "94.51 ± 1.10", "unit": "%"},
      {"measurement": "Total", "setting": "[2]; ITP", "result": "98.62 ± 1.13", "unit": "%"},
      {"measurement": "Washes", "setting": "[2]; ITP", "result": "0.75 ± 0.10", "unit": "%"},
      {"measurement": "Tissue Uptake", "setting": "[2]; ITP", "result": "3.98 ± 0.10", "unit": "%"},
      {"measurement": "Transport", "setting": "[2]; ITP", "result": "1.97 ± 0.05", "unit": "%"},
      {"measurement": "transport in the s:m direction greater than in the m:s direction", "setting": "[2]; MTA", "result": 16, "unit": "%"},
      {"measurement": "uptake, times higher than plain nanoparticles", "setting": "[2]; MTA", "result": 3.6, "unit": "times"},
      {"measurement": "percent transport as well as uptake, times higher than deslorelin-nanoparticles", "setting": "[2]; MTA, MTP and ITP regions", "result": "1.3-1.4 times"},
      {"measurement": "Remaining in Donor", "setting": "[2]; MTA", "result": "93.06 ± 0.99", "unit": "%"},
      {"measurement": "Total", "setting": "[2]; MTA", "result": "98.77 ± 0.95", "unit": "%"},
      {"measurement": "Washes", "setting": "[2]; MTA", "result": "0.50 ± 0.13", "unit": "%"},
      {"measurement": "Tissue Uptake", "setting": "[2]; MTA", "result": "2.13 ± 0.13", "unit": "%"},
      {"measurement": "Transport", "setting": "[2]; MTA", "result": "1.13 ± 0.07", "unit": "%"},
      {"measurement": "transport in the s:m direction greater than in the m:s direction", "setting": "[2]; MTP", "result": 17, "unit": "%"},
      {"measurement": "uptake, times higher than plain nanoparticles", "setting": "[2]; MTP", "result": 2.9, "unit": "times"},
      {"measurement": "Remaining in Donor", "setting": "[2]; MTP", "result": "92.14 ± 2.20", "unit": "%"},
      {"measurement": "Total", "setting": "[2]; MTP", "result": "98.99 ± 0.52", "unit": "%"},
      {"measurement": "Washes", "setting": "[2]; MTP", "result": "0.60 ± 0.11", "unit": "%"},
      {"measurement": "Tissue Uptake", "setting": "[2]; MTP", "result": "2.99 ± 0.14", "unit": "%"},
      {"measurement": "Transport", "setting": "[2]; MTP", "result": "1.52 ± 0.11", "unit": "%"},
      {"measurement": "decrease in uptake at 4° C. compared to 37° C.", "setting": "[2]; m:s direction, ITP", "result": 77, "unit": "%"},
      {"measurement": "percent transport, times higher than plain nanoparticles", "setting": "[2]; m:s direction, ITP", "result": "~1.8", "unit": "times"},
      {"measurement": "decrease in uptake at 4° C. compared to 37° C.", "setting": "[2]; m:s direction, MTA", "result": 58, "unit": "%"},
      {"measurement": "percent transport, times higher than plain nanoparticles", "setting": "[2]; m:s direction, MTA", "result": "approximately 3.3 times"},
      {"measurement": "decrease in uptake at 4° C. compared to 37° C.", "setting": "[2]; m:s direction, MTP", "result": 70, "unit": "%"},
      {"measurement": "percent transport, times higher than plain nanoparticles", "setting": "[2]; m:s direction, MTP", "result": "~2.1", "unit": "times"},
      {"measurement": "decrease in transport on co-treatment with free ligand", "setting": "[2]; [3]", "result": 25, "unit": "%"},
      {"measurement": "decrease in uptake on co-treatment with free ligand", "setting": "[2]; [3]", "result": 44, "unit": "%"},
      {"measurement": "decrease in uptake on co-treatment with free ligand", "setting": "[2]; 20 μg/ml nanoparticles + 200 μg/ml free ligand, MTA", "result": 43, "unit": "%"},
      {"measurement": "decrease in transport on co-treatment with free ligand", "setting": "[2]; [4]", "result": 33, "unit": "%"},
      {"measurement": "decrease in uptake on co-treatment with free ligand", "setting": "[2]; [4]", "result": 45, "unit": "%"},
      {"measurement": "decrease in transport on co-treatment with free ligand", "setting": "[2]; 20 μg/ml nanoparticles + 200 μg/ml plain deslorelin or transferrin, MTA", "result": 22, "unit": "%"},
      {"measurement": "decrease in uptake at 4° C. compared to 37° C.", "setting": "[2]; s:m direction, ITP", "result": 80, "unit": "%"},
      {"measurement": "decrease in uptake at 4° C. compared to 37° C.", "setting": "[2]; s:m direction, MTA", "result": 65, "unit": "%"},
      {"measurement": "decrease in uptake at 4° C. compared to 37° C.", "setting": "[2]; s:m direction, MTP", "result": 75, "unit": "%"}
    ]}
  ]
}
